Results on twelve molecules are retold here after patent US20240327535A1 (EISAI R AND D MANAGEMENT, published 2024).

Like-named read-outs stand apart in the source and are kept apart here.

Experiment [1] concerns the target T1, human BCMA on NCI-H929, OPM2 and Raji cells (human, UniProt Q02223 1-184).
T1 construct: endogenous BCMA of human cell lines; also called TNFRSF17; CD269
T1 chain: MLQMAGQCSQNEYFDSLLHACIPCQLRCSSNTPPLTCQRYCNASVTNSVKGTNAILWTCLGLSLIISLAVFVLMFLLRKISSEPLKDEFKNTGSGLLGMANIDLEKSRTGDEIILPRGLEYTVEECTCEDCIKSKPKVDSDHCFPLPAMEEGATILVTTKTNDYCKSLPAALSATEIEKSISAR
The experiment can be described thus: flow cytometry, Raji cells. (In general: A flow cytometer gives signals particle by particle.)

Experiment [2] addresses T1, human BCMA on NCI-H929, OPM2 and Raji …. The experiment can be described thus: flow cytometry, NCI-H929 cells.
The target is the same in experiment [3]. The experiment can be described thus: flow cytometry, OPM2 cells.
Experiment [4] has the same target. The experiment can be described thus: flow cytometry on NCI-H929 cells (BCMA high), fluorescent anti-human IgG1 secondary antibody, MFI against antibody conc.
Experiment [5] shares this target. The experiment can be described thus: flow cytometry on NCI-H929 cells (BCMA high), fluorescent anti-human IgG1 secondary antibody, MFI against test article concentration.
Experiment [6] shares this target. The experiment can be described thus: flow cytometry, NCI-H929 cells.
The target is the same in experiment [7]. The experiment can be described thus: flow cytometry, NCI-H929 cells.
The target of experiment [8] is T2, extracellular domain of rhesus monkey BCMA (rhesus monkey, UniProt F7FFA0 1-53).
T2 construct: extracellular domain; also called RhBCMA
T2 sequence (F7FFA0 entry or part of it): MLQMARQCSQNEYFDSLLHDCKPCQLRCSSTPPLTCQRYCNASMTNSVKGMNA
The experiment can be described thus: Octet BLI; Fab 200 nM. On the technique in general: BLI is a label-free optical method that tracks binding on a fibre tip over time.

In experiment [9] the target is T3, extracellular domain of human BCMA (human, UniProt Q02223 1-54).
T3 construct: amine-linked to Octet AR2G tips; also called hsBCMA; BCMA (human)
T3 sequence: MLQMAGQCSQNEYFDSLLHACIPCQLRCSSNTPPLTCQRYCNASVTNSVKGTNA
The experiment can be described thus: Octet BLI; Fab 200 nM.

The target in experiment [10] is T2, extracellular domain of rhesus monkey …. The experiment can be described thus: Octet BLI; Fab 200 nM. The source holds these as a separate data set.
Experiment [11] deals with T3, extracellular domain of human BCMA. The experiment can be described thus: Octet BLI; Fab 200 nM. The source holds these as a separate data set.
Experiment [12] addresses T2, extracellular domain of rhesus monkey …. The experiment can be described thus: Octet BLI; Fab 200 nM. The source holds these as a separate data set.
The target in experiment [13] is T3, extracellular domain of human BCMA. The experiment can be described thus: Octet BLI; Fab 200 nM. The source holds these as a separate data set.
Experiment [14] addresses T2, extracellular domain of rhesus monkey …. The experiment can be described thus: Octet BLI; Fab 200 nM. The source holds these as a separate data set.
Experiment [15] addresses T3, extracellular domain of human BCMA. The experiment can be described thus: Octet BLI; Fab 200 nM. The source holds these as a separate data set.
The target of experiment [16] is T2, extracellular domain of rhesus monkey …. The experiment can be described thus: Octet BLI; Fab 200 nM. The source holds these as a separate data set.
For experiment [17], the target named is T3, extracellular domain of human BCMA. The experiment can be described thus: Octet BLI; Fab 200 nM. This is another data set of the same source.

B1: AB214 (antibody, human IgG1, kappa, V domains shown)
VH: QVQLVQSGAEVKKPGSSVKVSCKASGGTFSNYWIHWVRQAPGQGLEWMGATYRSQSDTYYNQKYKSRVTITADKSTSTAYMELSSLRSEDTAVYYCARGAVYHGYDVIDNWGQGTLVTVSS
VL: DIQMTQSPSSLSASVGDRVTITCRASQSISSYLNWYQQKPGKAPKLLIYATSNLQIGVPSRFSGSGSGTDFTLTISSLQPEDFATYYCQQYRRIPWTFGQGTKLEIKR
notes: IgG1 kappa
As usually defined, the Kd is the equilibrium constant for the complex coming apart. The term EC50 (read off the curve) denotes the concentration at which the effect is half-maximal. Regarding B1, the Kd in experiment [1] came to 5.66 nM; in experiment [2], 2.84 nM; in experiment [3], 2.12 nM. The “EC50 (read off the curve)” value in experiment [4] is around 3 nM.

B2: AB200-ADL5-D4-05 (antibody, human IgG1, kappa, V domains shown)
VH: QVQLVQSGAEVKKPGSSVKVSCKASGGTFSNYWMHWVRQAPGQGLEWMGATYRGHSDTYYNQKFKGRVTITADKSTSTAYMELSSLRSEDTAVYYCARGAIYDGYDVLDNWGQGTLVTVSS
VL: DIQMTQSPSSLSASVGDRVTITCSASQDISNYLNWYQQKPGKAPKLLIYYTSNLHSGVPSRFSGSGSGTDFTLTISSLQPEDFATYYCQQYRKLPWTFGQGTKLEIKR
modifications: ADL5-D4 linker-payload on cysteine residues of the antibody, DAR 4.39
notes: antibody-drug conjugate
On to B2, for which the “EC50 (read off the curve)” value in experiment [5] is around 9 nM. The Kd is 9.8 nM in experiment [6] and 6 to 10 nM in [7].

B3: AB200-mcMMAF-05 (antibody, human IgG1, kappa, V domains shown)
VH: QVQLVQSGAEVKKPGSSVKVSCKASGGTFSNYWMHWVRQAPGQGLEWMGATYRGHSDTYYNQKFKGRVTITADKSTSTAYMELSSLRSEDTAVYYCARGAIYDGYDVLDNWGQGTLVTVSS
VL: DIQMTQSPSSLSASVGDRVTITCSASQDISNYLNWYQQKPGKAPKLLIYYTSNLHSGVPSRFSGSGSGTDFTLTISSLQPEDFATYYCQQYRKLPWTFGQGTKLEIKR
modifications: mcMMAF (ADL10-MMAF) linker-payload on cysteine residues of the antibody, DAR 4.0
notes: antibody-drug conjugate; also called AB200-ADL10-MMAF
As for B3, in [5], the “EC50 (read off the curve)” value is around 6 nM. For the same molecule, the Kd in experiment [7] fell in the range of 6 to 10 nM.

B4: AB213 (antibody, human IgG1, kappa, V domains shown)
VH: QVQLVQSGAEVKKPGSSVKVSCKASGGTFTNYWIHWVRQAPGQGLEWMGGTYRSHSTTYYNQKFKSRVTITADKSTSTAYMELSSLRSEDTAVYYCARGAVYHGYDVIDNWGQGTLVTVSS
VL: DIQMTQSPSSLSASVGDRVTITCRASQSISSYLNWYQQKPGKAPKLLIYATSNLQIGVPSRFSGSGSGTDFTLTISSLQPEDFATYYCQQFRRLPWTFGQGTKLEIKR
notes: IgG1 kappa
Turning to B4, the figures for the Kd in experiment [1], in [2] and in experiment [3] were 8.83 nM, 4.26 nM and 1.96 nM, respectively. For the same molecule, the half-maximal effective concentration (EC50 (read off the curve)) in experiment [4] was around 4 nM.

B5: AB200-(2Vk35)_R2-VH-v6 (Fab, V domains shown)
VH: QVQLVQSGAEVKKPGSSVKVSCKASGGTFTNYWIHWVRQAPGQGLEWMGATYRSHSDTYYAQKYKSRVTITADKSTSTAYMELSSLRSEDTAVYYCARGAVYHGYDVIDNWGQGTLVTVSS
VL: DIQMTQSPSSLSASVGDRVTITCRASQSISSYINWYQQKPGKAPKLLIYATSNLQSGVPSRFSGSGSGTDFTLTISSLQPEDFATYYCQQYRRIPWTFGQGTKLEIKR
notes: also called AB200_VH2-06_VK2-35
As to B5, the Kd in experiment [8] worked out at 9.6 nM; in [9], 1.66 nM; in experiment [10], 9.36 nM; in [11] it was 1.29 nM.

B6: AB200-(2Vk44)_R2-VH-v75 (Fab, V domains shown)
VH: QVQLVQSGAEVKKPGSSVKVSCKASGGTFSNYWIHWVRQAPGQGLEWMGATYRIQSDTYYNQKYKSRVTITADKSTSTAYMELSSLRSEDTAVYYCARGAVYHGYDVIDNWGQGTLVTVSS
VL: DIQMTQSPSSLSASVGDRVTITCRASQSISSYINWYQQKPGKAPKLLIYATSNLQIGVPSRFSGSGSGTDFTLTISSLQPEDFATYYCQQYRRLPWSFGQGTKLEIKR
notes: also called AB200_VH2-75_VK2-44
With B6, the equilibrium dissociation constant (Kd) in [12] was 5.22 nM; in [13], 0.8 nM; in experiment [8] it was 5.53 nM; in [9], 1.07 nM.

B7: AB200-(2Vk30)_R2-VH-v37 (Fab, V domains shown)
VH: QVQLVQSGAEVKKPGSSVKVSCKASGGTFSNYWIHWVRQAPGQGLEWMGATYRSQSDTYYNQKYKSRVTITADKSTSTAYMELSSLRSEDTAVYYCARGAVYHGYDVIDNWGQGTLVTVSS
VL: DIQMTQSPSSLSASVGDRVTITCRASQSISSYLNWYQQKPGKAPKLLIYATSNLQIGVPSRFSGSGSGTDFTLTISSLQPEDFATYYCQQYRRIPWTFGQGTKLEIKR
notes: also called AB200_VH2-37_VK2-30
For B7, the Kd in experiment [8] stood at 6.33 nM; in experiment [9], 1.14 nM; in [14] it was 6.05 nM; in experiment [15] it was 0.81 nM.

B8: AB200-(2Vk31)_R2-VH-v3 (Fab, V domains shown)
VH: QVQLVQSGAEVKKPGSSVKVSCKASGGTFTNYWIHWVRQAPGQGLEWMGGTYRSHSTTYYNQKFKSRVTITADKSTSTAYMELSSLRSEDTAVYYCARGAVYHGYDVIDNWGQGTLVTVSS
VL: DIQMTQSPSSLSASVGDRVTITCRASQSISSYLNWYQQKPGKAPKLLIYATSNLQIGVPSRFSGSGSGTDFTLTISSLQPEDFATYYCQQFRRLPWTFGQGTKLEIKR
notes: also called AB200_VH2-03_VK2-31
As for B8, the Kd in experiment [16] is 5.73 nM; in [17], 2.55 nM; in experiment [8], 5.03 nM; in experiment [9], 2.7 nM.

B9: AB200-(2Vk31)_R2-VH-v27 (Fab, V domains shown)
VH: QVQLVQSGAEVKKPGSSVKVSCKASGGTFSNYWIHWVRQAPGQGLEWMGATYRSQSTTYYNQKFKSRVTITADKSTSTAYMELSSLRSEDTAVYYCARGAVYHGYDVIDNWGQGTLVTVSS
VL: DIQMTQSPSSLSASVGDRVTITCRASQSISSYLNWYQQKPGKAPKLLIYATSNLQIGVPSRFSGSGSGTDFTLTISSLQPEDFATYYCQQFRRLPWTFGQGTKLEIKR
notes: also called AB200_VH2-27_VK2-31
Turning to B9, the Kd in experiment [16] amounted to 15.3 nM; in [17], 7.13 nM; in experiment [8] it was 13.9 nM; in experiment [9], 6.43 nM.

B10: AB200-(2Vk31)_R2-VH-v20 (Fab, V domains shown)
VH: QVQLVQSGAEVKKPGSSVKVSCKASGGTFSNYWIHWVRQAPGQGLEWMGGTYRSHSDTNYNQKFKSRVTITADKSTSTAYMELSSLRSEDTAVYYCARGAIYHGYDVIENWGQGTLVTVSS
VL: DIQMTQSPSSLSASVGDRVTITCRASQSISSYLNWYQQKPGKAPKLLIYATSNLQIGVPSRFSGSGSGTDFTLTISSLQPEDFATYYCQQFRRLPWTFGQGTKLEIKR
notes: also called AB200_VH2-20_VK2-31
Turning to B10, the Kd in experiment [16] is 93.8 nM; in [17], 42 nM; in experiment [8], 79.3 nM; in experiment [9], 38.6 nM.

B11: AB217 (antibody, human IgG1, kappa, V domains shown)
VH: QVQLVQSGAEVKKPGSSVKVSCKASGGTFTNYWIHWVRQAPGQGLEWMGATYRSHSDTYYAQKYKSRVTITADKSTSTAYMELSSLRSEDTAVYYCARGAVYHGYDVIDNWGQGTLVTVSS
VL: DIQMTQSPSSLSASVGDRVTITCRASQSISSYINWYQQKPGKAPKLLIYATSNLQSGVPSRFSGSGSGTDFTLTISSLQPEDFATYYCQQYRRIPWTFGQGTKLEIKR
notes: IgG1 kappa
Take B11: the Kd in experiment [1] was 7.31 nM; in [2], 3.38 nM; in experiment [3] it was 2.33 nM. For the same molecule, the “EC50 (read off the curve)” value in experiment [4] was around 3 nM.

B12: AB215 (antibody, human IgG1, kappa, V domains shown)
VH: QVQLVQSGAEVKKPGSSVKVSCKASGGTFTNYWIHWVRQAPGQGLEWMGGTYRSHSTTYYNQKFKSRVTITADKSTSTAYMELSSLRSEDTAVYYCARGAVYHGYDVIDNWGQGTLVTVSS
VL: DIQMTQSPSSLSASVGDRVTITCRASQSISSYLNWYQQKPGKAPKLLIYATSNLQIGVPSRFSGSGSGTDFTLTISSLQPEDFATYYCQQYRRIPWTFGQGTKLEIKR
notes: IgG1 kappa
On to B12, for which the equilibrium dissociation constant (Kd) in experiment [1] worked out at 11.2 nM; in [2] it was 8.06 nM; in [3], 3.63 nM. In addition, the “EC50 (read off the curve)” value in experiment [4] is around 7 nM.
